Experimental data as given in article PMC10011731.

Molecular target: Taxol-stabilized microtubules (bovine brain tubulin) (bovine) (UniProt Q6B856)
Experiment: TIRF microscopy of purified proteins on surface-bound microtubules (in vitro reconstitution); Taxol-stabilised biotinylated microtubules bound to NeutrAvidin coverslips; 100 nM CLASP2α-GFP or 100 nM GFP-L-TOG2-S with […] TRITC-phalloidin F-actin flowed in; imaging buffer with MRB80, Taxol, 0.2 mM ATP; 35°C; PCC after 10 min, time-lapse up to 40 min

Pearson correlation coefficient (PCC) of the CLASP2α-GFP and microtubule signals: 0.88
Substance: His-CLASP2α-EGFP-Strep (natural protein)
